Data as given in patent US20190367619A1 (ARGENX, published 2019).

T1: human galectin-10-His (human)
T1 construct: The last M of the tag may be Met1 of galectin-10; also called humanGal10-His; hGal10
T1 chain: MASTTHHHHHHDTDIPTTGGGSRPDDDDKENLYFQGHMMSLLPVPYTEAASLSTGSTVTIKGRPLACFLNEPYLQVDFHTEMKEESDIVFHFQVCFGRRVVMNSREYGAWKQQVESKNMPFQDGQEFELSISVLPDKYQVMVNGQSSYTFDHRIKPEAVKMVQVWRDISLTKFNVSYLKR

T2: recombinant human galectin-10, TEV-cleaved (human, UniProt Q05315 1-142)
T2 sequence: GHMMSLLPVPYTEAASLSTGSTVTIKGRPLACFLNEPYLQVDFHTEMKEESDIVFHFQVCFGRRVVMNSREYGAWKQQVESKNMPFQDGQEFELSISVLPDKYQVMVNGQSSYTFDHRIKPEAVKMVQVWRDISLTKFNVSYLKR

T3: cynomolgus galectin-10-His, WGS isoform (cynomolgus)
T3 construct: also called cynoGal10-WGS; not shown: His tag
T3 chain: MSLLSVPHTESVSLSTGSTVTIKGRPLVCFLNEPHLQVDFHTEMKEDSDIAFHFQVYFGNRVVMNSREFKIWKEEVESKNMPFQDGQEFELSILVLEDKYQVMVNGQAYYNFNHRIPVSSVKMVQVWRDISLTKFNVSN


Assays:
human galectin-10-His [1] = target: T1, human galectin-10-His; experiment: ELISA, galectin-10-His coated at 1 ug/mL, Fab
Method: The binding capacity of the lead anti-galectin-10 Fabs was tested by binding ELISA. Briefly, a Maxisorp plate was coated overnight with 1 μg/mL of human galectin-10-His. Then a serial dilution of each clone (from 4 μM, dilution 1/4, 12 points of dilutions) was incubated on coated galectin-10. After several washing steps, detection of the bound Fab was carried out with an anti-human IgG Fab specific-peroxidase. Absorbance was measured at 450 nm (reference at 620 nm) with Tecan instrument.

[2] = target: T2, recombinant human galectin-10, …; experiment: cell-based or functional assay
human galectin-10-His [3] = target: T1, human galectin-10-His; experiment: SPR Biacore T3000, mouse IgG1 captured
Method: The binding capacity of the mouse IgG1 antibody panel to galectin-10 was analysed on Biacore T3000. For this purpose, a capture approach was used, where a fixed concentration (1.5 μg/mL) of the mouse IgG1 clone was captured by polyclonal anti-mouse Fc antibodies immobilized on CM5 Chip to reach a binding signal around 150 RU. Then a serial dilution of human and cynomolgus WGS isoform of galectin-10-His (serial dilution, 1 over 2 from 5 μg/mL) diluted in HBS-EP pH7.4 was injected. Raw data were analysed via BIA evaluation software with a blank subtraction. The kd/KD and Rmax of each mAbs to galectin-10-His was determined using the Fit Kinetics simultaneous ka/kd/Binding with mass transfer/Local Rmax on BIA evaluation software.

[4] = target: T2, recombinant human galectin-10, …; experiment: cell-based or functional assay; remark: listed apart in the source
human galectin-10-His [5] = target: T1, human galectin-10-His; experiment: ELISA, coated antigen 0.5 ug/mL
Method: (§1) In a similar setup to that used during the characterization of the scFv-human Fc molecules, the relative binding properties of the 7 mouse IgG1 antibodies were analyzed by ELISA. A Maxisorp plate was coated overnight with 0.5 μg/mL of human or cynomolgus WGS or YRT isoform of galectin-10-His. Then a serial dilution of each clone (from 100 nM, dilution 1/4, 12 points of dilutions) was incubated on coated galectin-10. After several washing steps, detection of the bound mouse IgG1 was carried out with an anti-mouse Fc-HRP antibody (DAMPO, Jackson ImmunoResearch, Catalog 715-035-150). Absorbance was measured at 450 nm (reference at 620 nm) with Tecan instrument. The raw data (OD values) were plotted on GraphPad Prism 7.01. The EC50 values for each antibody, calculated with a non-linear regression (log(agonist) vs. response Variable slope (four parameters)), are shown in the table below. Antibody 1D11 from the previous panel was included for comparison.

[6] = target: T3, cynomolgus galectin-10-His, WGS isoform; experiment: ELISA, coated antigen 0.5 ug/mL
Method: as §1

Row | Bmax (human galectin-10-His [1]) | EC50 (human galectin-10-His [1]) | 50% crystal dissolution (min), 50 uM [2] | 90% crystal dissolution (min), 50 uM [2] | Kd (human galectin-10-His [3]) | koff (human galectin-10-His [3]) | kon (human galectin-10-His [3]) | 50% dissolution (min) of CLCs, antibody 50 uM [4] | 90% dissolution (min) of CLCs, antibody 50 uM [4] | EC50 (human galectin-10-His [5]) | OD values (human galectin-10-His [5]) | OD values [6] | Binder | binding result [6]
1 | 0.95 OD | 24.3 nM | 48.5 min | > 120 min |  |  |  |  |  |  |  |  | 8H11 Fab (Fab, V domains shown, Fab with human CH1 (including part of the hinge region) and human lambda constant domain; also called 8H11 hFab) VH: ELQLVESGGGLVQPGGSLRLSCAASGFTFSTNYMNWVRQAPGKGLEWVSGITSGGGRTYYADSVKGRFTISRDNAKNTLYLQMNSLKPEDTALYYCARTDHAWLDAWGQGTLVTVSS VL: QAGLTQPPSVSGTLGKTVTISCAGTSSDVGYGNYVSWYQQLPGTAPKLLIYAVSTRASGIPDRFSGSKSGNTASLTISGLLSEDEADYYCASYRSSNNYVFGGGTKLTVL | 
2 | 1.38 OD | 22.4 nM | 62 min | > 120 min |  |  |  |  |  |  |  |  | 11F12 Fab (Fab, V domains shown, Fab with human CH1 (including part of the hinge region) and human lambda constant domain; also called 11F12 hFab) VH: QVQLQESGGGLVQPGGSLRLSCAASGFTFSTNYMNWVRQAPGKGLEWVSGITSGGGRTYYADSVKGRFTISRDNAKNTLYLQMNSLKPEDTALYYCARTDHAWLDAWGQGTLVTVSS VL: HSAVTQPPSVSGTLGKTVTISCAGTSSDVGYGNYVSWYQHLPGTAPKLLIYAVSTRASGVPDRFSGSKSGNTASLTISGLQSEDEGDYYCASYSVRNNVVFGGGTRLTVL | 
3 | 0.46 OD | 81.4 nM | 77.9 min | > 120 min |  |  |  |  |  |  |  |  | 11F02 Fab (Fab, V domains shown, Fab with human CH1 (including part of the hinge region) and human lambda constant domain; also called 11F02 hFab) VH: ELQVVESGGGLVQPGGSLRLSCAASGFTFSTNYMNWVRQAPGKGLEWVSGITSHGARTYYADSVKGRFTISRDNSKNTLYLQMNSLKPEDTALYYCARTDHASLDAWGQGTLVTVSS VL: QTVVTQEPSLSVSPGGTVTLTCGLSSGSVTSSNYPGWYQQKPGQAPRTLIYNTNSRYSGVPNRFSGSISGNKAALTITGAQPEDEADYYCALYMGSSSYNTVFGGGTHLTVL | 
4 | 0.36 OD | 89.5 nM | 49.1 min | > 120 min |  |  |  |  |  |  |  |  | 10A06 Fab (Fab, V domains shown, Fab with human CH1 (including part of the hinge region) and human lambda constant domain; also called 10A06 hFab) VH: QVQLVESGGGLVQPGGSLRLSCAASGFTFGNYDMSWVRQAPGKGPEWVSDINSGGGSTYYADSVKGRFTISRDNAKNSLLLQMNSLKPEDTAVYYCATGYTGYYYWGQGTQVTVSS VL: QTVVTQEPSLSVSPGGTVTLTCGLSSGSVTSSNYPAWYQQTPGQAPRALIYSINSRHSGVPDRFSGSISGNKAALTITGAQAEDEADYYCTLYMGTGSNNVVFGGGTHLTVL | 
5 |  |  | 100 min | > 120 min | 0.7 nM | 0.00931 s⁻¹ | 1.27e+07 M⁻¹ s⁻¹ | 30.1 min | 56.7 min | 0.1 nM | 2 OD | 0.05 OD | 1D11 mouse IgG1 (antibody, V domains shown, Llama VH and VL on mouse IgG1 heavy chain constant domains (CH1-CH2-CH3) and mouse lambda light chain constant domain; also called 1D011; 1D11 mIgG1) VH: QVQLVESGGGLVQPGGSLRLSCAASGFTFDDYAMSWVRQAPGKGLEWVSGISWNGGSTYYAESMKGRFTISRDNAKNTLYLQMNSLKSEDTAVYYCAKDRNLGYRLGYPYDYWGQGTQVTVSS VL: QSVLTQPPSVSGSPGETVTISCAGTSSDVGYGNYVSWYQQLPGMAPRLLIYEVNKRASGITDRFSGSKSGNTASLTISGLQSEDEGDYYCASYRSSNNAVFGGGTHLTVL | no binding (tested: serial dilution from 100 nM)
6 | 1.03 OD | 16.1 nM | 59.7 min | > 120 min |  |  |  |  |  |  |  |  | 10D02 Fab (Fab, V domains shown, Fab with human CH1 (including part of the hinge region) and human lambda constant domain; also called 10D2; 10D02 hFab) VH: EVQLVESGGGLVQPGGSLRVSCAASGFTFSSYYMSWVRQAPGKGLEWVSGIVTGGGRTHYTDSVKGRFTITRDNAKNTLYLQMNSLRPEDTALYYCARVNGVVTNYDYWGQGTQVTVSS VL: QAVLTQPPSVSGSPGKTVTISCAGTSSDVGYGNYVSWYQQLPGMAPKLLIYDVNKRASGITDRFSGSKSGNTASLTISGLQSEDEADYFCASYRSPNNVVFGQGTHLTVL | 
7 | 0.74 OD | 61.2 nM | 102 min | > 120 min |  |  |  |  |  |  |  |  | 10B02 Fab (Fab, V domains shown, Fab with human CH1 (including part of the hinge region) and human lambda constant domain; also called 10B02 hFab) VH: QVQLVESGGGLVQPGGSLRVSCAASGFTFSYHYMNWVRQAPGKGLEWVSGISAGGGRTYYADSVKGRFTISRDNAKNTLYLQMNSLNAEDTALYYCARVHGITNDYWGQGTQVTVSS VL: QSALTQPPSVSGSPGKTVTISCAGTSSDVGYGNYVSWYQQLPGMAPKLLIYEVNKRASGITDRFSGSKSGNTAFLTISGLQSEDEADYYCASYRNSNNWVFGGGTHLTVL | 
8 | 1.59 OD | 1.4 nM | 33.4 min | 97.8 min |  |  |  |  |  |  |  |  | 1D11 Fab (Fab, V domains shown, Fab with human CH1 (including part of the hinge region) and human lambda constant domain; also called Fab-1D11; 1D11 hFab) VH: QVQLVESGGGLVQPGGSLRLSCAASGFTFDDYAMSWVRQAPGKGLEWVSGISWNGGSTYYAESMKGRFTISRDNAKNTLYLQMNSLKSEDTAVYYCAKDRNLGYRLGYPYDYWGQGTQVTVSS VL: QSVLTQPPSVSGSPGETVTISCAGTSSDVGYGNYVSWYQQLPGMAPRLLIYEVNKRASGITDRFSGSKSGNTASLTISGLQSEDEGDYYCASYRSSNNAVFGGGTHLTVL | 
